In paper PMC4991852, “The Sac3 TPR-like region in the Saccharomyces cerevisiae TREX-2 complex is more extensive but independent of the CID region” (Journal of Structural Biology, 2016):

T1: Sac3 (residues 140-805) (S. cerevisiae, UniProt P46674 140-805)
T1 construct: Sac3, S. cerevisiae, residues 140-805 by the complex's name; the text says that residues 1-140 were deleted; also called Sac3 of TREX-2^140–805
T1 sequence (looked up): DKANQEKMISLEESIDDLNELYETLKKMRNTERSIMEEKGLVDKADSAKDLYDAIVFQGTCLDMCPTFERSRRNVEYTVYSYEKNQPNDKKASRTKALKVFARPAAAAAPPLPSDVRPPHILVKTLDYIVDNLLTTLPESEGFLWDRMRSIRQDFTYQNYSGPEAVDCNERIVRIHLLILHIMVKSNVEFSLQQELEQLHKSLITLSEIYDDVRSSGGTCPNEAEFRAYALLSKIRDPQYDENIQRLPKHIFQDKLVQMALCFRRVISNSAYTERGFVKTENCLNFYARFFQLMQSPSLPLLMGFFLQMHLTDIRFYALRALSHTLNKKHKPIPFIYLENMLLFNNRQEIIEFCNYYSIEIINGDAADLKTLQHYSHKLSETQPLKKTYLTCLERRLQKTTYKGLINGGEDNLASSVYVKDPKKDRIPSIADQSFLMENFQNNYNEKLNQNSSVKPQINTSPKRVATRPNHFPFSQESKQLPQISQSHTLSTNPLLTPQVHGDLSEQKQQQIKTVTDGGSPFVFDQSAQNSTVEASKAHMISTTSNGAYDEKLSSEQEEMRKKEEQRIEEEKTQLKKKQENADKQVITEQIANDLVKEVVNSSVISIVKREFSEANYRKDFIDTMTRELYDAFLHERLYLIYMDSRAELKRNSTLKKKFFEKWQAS

B1: Sem1 (natural protein, S. cerevisiae, UniProt O94742 1-89, looked up)
chain: MSTDVAAAQAQSKIDLTKKKNEEINKKSLEEDDEFEDFPIDTWANGETIKSNAVTQTNIWEENWDDVEVDDDFTNELKAELDRYKRENQ
notes: Sem1, S. cerevisiae; source: Sf9, baculovirus, co-expressed with GST-Sac3; in lysate and purified with the complex (glutathione Sepharose, heparin, SEC)
B2: Thp1 (natural protein, S. cerevisiae, UniProt Q08231 1-455, looked up)
chain: MDMANQLLDELAHGNFSHLTLNLSQNGREIAILQKQLTGFDDKQLETFVEQHPAMPNDTRFKIMCTSFLNYARDVDPWSAWSSSDLIFEFYQCLINCLINDNAPHIEMLIPVATRETEFIINLAGKLDSFHLQLHTRSHQFLSHISSILSRLFNSIKPPRGNASSTNIPGKQRILLYLVNKLNNIYFRIESPQLCSNIFKNFQPKSMLAHFNEYQLDQQIEYRYLLGRYYLLNSQVHNAFVQFNEAFQSLLNLPLTNQAITRNGTRILNYMIPTGLILGKMVKWGPLRPFLSQETIDNWSVLYKHVRYGNIQGVSLWLRQNERHLCARQLLIVLLEKLPMVTYRNLIKTVIKSWTTEWGQNKLPYSLIERVLQLSIGPTFEDPGAQEITIYNGIHSPKNVENVLVTLINLGLLRANCFPQLQLCVVKKTTMIQEIVPPVNERITKMFPAHSHVLW
notes: Thp1, S. cerevisiae; The theoretical mass of 195 kDa for TREX-2^1-805 fits whole chains of the four small subunits; source: Sf9, baculovirus, co-expressed with GST-Sac3; in lysate and purified with the complex (glutathione Sepharose, heparin, SEC)
B3: Cdc31 (natural protein, S. cerevisiae, UniProt P06704 1-161, looked up)
chain: MSKNRSSLQSGPLNSELLEEQKQEIYEAFSLFDMNNDGFLDYHELKVAMKALGFELPKREILDLIDEYDSEGRHLMKYDDFYIVMGEKILKRDPLDEIKRAFQLFDDDHTGKISIKNLRRVAKELGETLTDEELRAMIEEFDLDGDGEINENEFIAICTDS
notes: Cdc31, S. cerevisiae; source: Sf9, baculovirus, co-expressed with GST-Sac3; in lysate and purified with the complex (glutathione Sepharose, heparin, SEC)
B4: Sus1 (natural protein, S. cerevisiae, UniProt Q6WNK7 1-96, looked up)
chain: MTMDTAQLKSQIQQYLVESGNYELISNELKARLLQEGWVDKVKDLTKSEMNINESTNFTQILSTVEPKALEMVSDSTRETVLKQIREFLEEIVDTQ
notes: Sus1, S. cerevisiae; source: Sf9, baculovirus, co-expressed with GST-Sac3; in lysate and purified with the complex (glutathione Sepharose, heparin, SEC)

Molecular target: T1, Sac3 (residues 140-805)
Test: SEC-SAXS; on-line HPLC with Superdex 200 Increase 3.2/300, beamline BM29 (ESRF), 20 °C; mass from I(0) against a BSA standard
Settings: both partners purified

| Binder | binding result |
| --- | --- |
| B1 | binds |
| B2 | binds |
| B3 | binds |
| B4 | binds |
